In the supplement of paper PMC11865577:

System: TO-3-N3 (biotin conjugate)
Experiment: pull-down binding Z-score (relative to library population); higher = stronger binding
Conditions: RNA library: Library-2
Method in brief: (§1)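 Cy5- or Cy3-end-labelled RNA library (1 μg) was heat-folded in phosphate/NaCl/KCl buffer and incubated 60 min at 25 °C with streptavidin beads carrying 100 pmol biotin-conjugated small molecule. After three washes, bound RNA was eluted in hot SDS and hybridised 20 h at 55.5 °C to a DNA barcode microarray. Binding was scored by subtracting a beads-only control, averaging barcoded replicate probes after dropping highest and lowest, and converting to a Z-score against library mean and standard deviation.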

Sequence | pull-down binding Z-score
UUGGGGAGGAGCUAAGAAGCCCCUACAGGGCCCAG [hsa-mir-4257] | 0.138
UUGGUCCGUAUGUGUGGUGCCACCGG [hsa-mir-1908] | -0.202
UUGGUCUUUCCCCUGUGGUCCCAA [hsa-mir-2909] | -0.158
UUGGUGACAGCAGCAGUAGAGUUGCCAG [hsa-mir-6501] | -0.632
UUGGUGUGUAUUGCCUUGUCAA [hsa-mir-1179] | -0.972
UUGUAAUAGUGUAGAAUGUUGGUUAAC [hsa-mir-591] | -0.133
UUGUCGUUAAAAAUAGCAA [hsa-mir-548n] | -0.497
UUGUCUCCUCAAGUUGCGACGAGACAG [hsa-mir-4645] | -0.254
UUGUGAAACACAGGUGUUUUUUAACCUCAC [hsa-mir-6841] | 0.199
UUGUGAUGUUUACCGUUUAAAUCCACGG [hsa-mir-125b-1] | 0.0416
UUGUGGCAAUACAG [hsa-mir-8068] | -0.437
UUGUGGCUUUGGGUGGAUAUUAAUCAGCCACAG [hsa-mir-383] | 0.257
UUGUGUAUGUACUUAGCUGUACUAUA [hsa-mir-1244-1_1244-4_1244-2_1244-3] | -0.689
UUGUGUCCAUCAUGCAACAA [hsa-mir-802] | -0.49
UUGUGUGGUAUCCGUAUAGUCACAG [hsa-mir-10b] | -0.416
UUGUUACAUUUUAGGAUUGCUUGCCCCUUGCUCCAAUGGUGCAGGCAGAAGAAAUGCAAACAA [hsa-mir-3973] | -0.0993
UUGUUCGUUGCAUUUUUAGGAACAA [hsa-mir-3613] | -1.11
UUGUUCUGAUGUACUACGACAA [hsa-mir-7-3] | -0.716
UUGUUGUUAUUACU [hsa-mir-378d-1] | -0.148

Sequence | pull-down binding Z-score
UUUAAGACACCCUGUACCUUAAA [hsa-mir-3121] | -0.44
UUUACAUAUAAAUUUCUAUUUGU [hsa-mir-4503] | 0.81
UUUACAUGCUACAGUCAAGAUGCGAA [hsa-mir-15b] | 0.288
UUUACCAUUACUUUCAAUGGCAAA [hsa-mir-548a-3] | -1.16
UUUACUUUUGGCCUCAAGUCAUUGCAGUAAA [hsa-mir-4796] | -0.696
UUUAGAAAAGAGAAUUCCAAA [hsa-mir-1252] | -0.294
UUUAGAUUUAAAUAGUGAUUGUCUAG [hsa-mir-29b-1] | 0.267
UUUAGUAUGCCACAUUUCUAAA [hsa-mir-4282] | -0.601
UUUAUGCCUGUUAGCAUGAAAAAAGAGGCUGAGAA [hsa-mir-7515] | -0.5
UUUCAGAUAACUCGGGA [hsa-mir-4320] | 0.173
UUUCCCAUUAUUUUAAUUGCGAA [hsa-mir-570] | -0.699
UUUCUAUAACUGGAUGAAA [hsa-mir-498] | -0.457
UUUCUCUUAUGUGAAAAAAAAGAAG [hsa-mir-525] | -0.283
UUUCUCUUGUCCAAAGGAAAAGAAG [hsa-mir-524] | -0.644
UUUCUCUUGUCUAAAAGAAAAGAAA [hsa-mir-518f] | -0.761
UUUCUGAAUUUGUGAGA [hsa-mir-4463] | -0.00836
UUUCUGUUGUCUAAAAGAAAAGAAA [hsa-mir-527] | -0.325
UUUCUGUUGUCUAAAAGAAGAGAAA [hsa-mir-518a-2] | 0.159
UUUCUGUUGUCUGAAAGAAAAGAAC [hsa-mir-523] | -0.301

System: TO-N3 (biotin conjugate)
Experiment: as above
Conditions: RNA library: Library-2
Method in brief: as §1

Sequence | pull-down binding Z-score
UUCGCAUUAUUUAAUGAUGCCCA [hsa-mir-323b] | -0.467
UUCGCGGUUGGGCU [hsa-mir-3143] | 1.33
UUCUAAUGCCAAGAA [hsa-mir-1279] | 0.773
UUCUAGUCCCUAUUAGACUAGAA [hsa-mir-5681a] | -1
UUCUCCUUGGGAAAAACAGAGAA [hsa-mir-605] | -0.65
UUCUCGAGUCUAUGGCUCCGGCCGAGAG [hsa-mir-219a-1] | 0.342
UUCUCGGUUGGCCGCAGACUCGUACAAGAA [hsa-mir-219b] | 0.0802
UUCUCUUUAUUUAUGAUGAA [hsa-mir-494] | -1.56
UUCUGCUGAAGACUGGUCUCUUCAUGUGUGAG [hsa-mir-6133] | -0.371
UUCUGCUGUGCCUUACAGCAGUAGAA [hsa-mir-3179-4_3179-1_3179-3_3179-2] | 0.0349
UUCUGUGGUUUGAAAGGAA [hsa-mir-1323] | 0.444
UUCUGUUGUCAGAAAGAAGAGAA [hsa-mir-1283-1] | 0.0942
UUCUGUUGUCUGAAAGAAAAGAA [hsa-mir-1283-2] | -0.429
UUCUGUUGUCUGAAAGAAACCAA [hsa-mir-518d] | -0.0135
UUCUUCCUGGAGUCGGGGAAAAG [hsa-mir-320e] | 0.516
UUCUUGUACGAGUCUGCGGCCAACCGAGAA [hsa-mir-219a-2] | 0.347
UUCUUUGAGGAUCUGGCCUAAAGAG [hsa-mir-202] | 1.27
UUCUUUUUUCUGAAAUUCUUCAGGAAGGA [hsa-mir-3167] | 0.0883
UUGAACUUCAUUUCUCAUGCUCA [hsa-mir-6870] | -0.104

Sequence | pull-down binding Z-score
UUGAAUCACACACACAUUUCAA [hsa-mir-4803] | -0.366
UUGACCAAUCAUCUUAUUGACUAGA [hsa-mir-6502] | -0.471
UUGAGAACCAG [hsa-mir-4328] | 1.79
UUGAGAAGUAAUUGA [hsa-mir-548ak] | 0.251
UUGAGCAUCUUCUGGGCAGCUGA [hsa-mir-7854] | 0.397
UUGAGGAGAGCACCACAGUGGUCAUCACACAG [hsa-mir-622] | 0.871
UUGAGGGACAUGGUUAAUGGAAUUGUCUCA [hsa-mir-342] | 0.413
UUGAUGUCAGAAUGAGGUGUACCAA [hsa-mir-4714] | -0.148
UUGAUGUCAGGUUAUCCCCAAGCAUAACCUCAC [hsa-mir-4639] | -0.499
UUGAUUCAGUAAAACAUUCAA [hsa-mir-891b] | -0.695
UUGCCCAA [hsa-mir-548bb] | -0.211
UUGCUCACGGUAAGAAAAACAUGAGUAA [hsa-mir-8062] | 0.238
UUGCUCUUUGGUGGAGAUA [hsa-mir-6074] | 0.505
UUGCUUAAG [hsa-mir-924] | 0.3
UUGGCACAGGGAAGCGAGUCUGCCAA [hsa-mir-195] | 0.504
UUGGCCUUUAUUUUCAAUGGCAAG [hsa-mir-548b] | 0.349
UUGGCGUAGUGAAAUAUAUAUUAAACACCAA [hsa-mir-16-2] | 0.0274
UUGGCGUUAAGAUUCUAAAAUUAUCUCCAG [hsa-mir-16-1] | -0.952
UUGGGAUCCACCUUUCUCUCGA [hsa-mir-196b] | 0.471

Sequence | pull-down binding Z-score
UUGGGGAGGAGCUAAGAAGCCCCUACAGGGCCCAG [hsa-mir-4257] | 0.56
UUGGUCCGUAUGUGUGGUGCCACCGG [hsa-mir-1908] | 0.148
UUGGUCUUUCCCCUGUGGUCCCAA [hsa-mir-2909] | -0.276
UUGGUGACAGCAGCAGUAGAGUUGCCAG [hsa-mir-6501] | -0.35
UUGGUGUGUAUUGCCUUGUCAA [hsa-mir-1179] | -0.924
UUGUAAUAGUGUAGAAUGUUGGUUAAC [hsa-mir-591] | 0.358
UUGUCGUUAAAAAUAGCAA [hsa-mir-548n] | -0.847
UUGUCUCCUCAAGUUGCGACGAGACAG [hsa-mir-4645] | -0.358
UUGUGAAACACAGGUGUUUUUUAACCUCAC [hsa-mir-6841] | 0.172
UUGUGAUGUUUACCGUUUAAAUCCACGG [hsa-mir-125b-1] | 0.107
UUGUGGCAAUACAG [hsa-mir-8068] | -0.425
UUGUGGCUUUGGGUGGAUAUUAAUCAGCCACAG [hsa-mir-383] | 0.0969
UUGUGUAUGUACUUAGCUGUACUAUA [hsa-mir-1244-1_1244-4_1244-2_1244-3] | -0.627
UUGUGUCCAUCAUGCAACAA [hsa-mir-802] | -0.144
UUGUGUGGUAUCCGUAUAGUCACAG [hsa-mir-10b] | -0.277
UUGUUACAUUUUAGGAUUGCUUGCCCCUUGCUCCAAUGGUGCAGGCAGAAGAAAUGCAAACAA [hsa-mir-3973] | 0.135
UUGUUCGUUGCAUUUUUAGGAACAA [hsa-mir-3613] | -1.52
UUGUUCUGAUGUACUACGACAA [hsa-mir-7-3] | -0.672
UUGUUGUUAUUACU [hsa-mir-378d-1] | -0.378
